Series [1] has as its system subcutaneous LNCaP tumors. Kind of series: Comparative biodistribution study in xenograft-bearing mice. Format: in vivo, athymic nude mice. The note with it: both labeled with 212Pb, one 10 μCi dose i.v., at 1 hour, 4 hours and 24 hours post-dose injection. The protocol:
A study was carried out in order to compare the biodistribution of PSMA-OM-00214, labeled with ^212Pb at a specific activity of 10 μCi per 10 ng of conjugate, in athymic nude mice bearing a human prostate cancer cell tumor with that of a conjugate, denoted hereinafter “DOTAM-PSMA-617”, also labeled with ^212Pb and differing from PSMA-OM-00214 in that it comprises only one PSMA ligand instead of two.
Three batches of male athymic nude mice, 7-8 weeks old and weighting 27.90±2.6 g for the first batch, 27.90±2.5 g for the second batch and 29.50±2.5 g for the third batch, at study initiation, were injected subcutaneously, into the right flank, with 10^6 LNCaP cells in 100 μL of RPMI-1640 medium/Matrigel™ (v/v: 1/1). The tumors were let grow until they reached 200-300 mm^3.
The mice were divided into a plurality of groups each comprising 3 to 14 mice.
In any case, each mouse received intravenously either one 10 μCi dose of ^212Pb-PSMA-OM-00214 (10 μCi per 10 ng of conjugate, 100 μL injection volume) or one 10 μCi dose of ^212Pb-DOTAM-PSMA-617 (10 μCi per 10 ng of conjugate, 100 μL injection volume). […]
The tubes were counted for two min. […] Standards consisting of 5 μL of the solutions injected to the mice were also counted and used for decay correction.
(§1) The percent injected dose per gram, denoted % ID/g, was calculated for each organ collected (mean±standard deviation).

A short description of series [2]: ^212Pb-PSMA-OM-00214 biodistribution study in xenograft-bearing mice. Format: in vivo, R2G2 mice. The note with it: male, R2G2, mouse, iv, 10 uCi, total radioactivity, labeled with 212Pb, 10 μCi per 10 ng of conjugate, one 10 μCi dose i.v. The protocol: (§2) A study was carried out in order to assess the biodistribution of PSMA-OM-00214, labeled with ^212Pb at a specific activity of 10 μCi per 10 ng of conjugate, in R2G2™ mice bearing a human prostate cancer cell tumor.
(§3) 15 male R2G2™ mice, 7-8 weeks old and weighting 33.9±3.5 g at study initiation, were injected subcutaneously, into the right flank, with 10^6 LNCaP cells in 100 μL of RPMI-1640 medium/Matrigel™ (v/v: 1/1). The tumors were let grow until they reached 200-300 mm^3 (as determined by the formula: volume=0.5×length×width^2).
(§4) Then animals were randomized based on tumor size and a group of 6 mice received intravenously (into a tail vein) one 10 μCi dose of ^212Pb-PSMA-OM-00214 (10 μCi per 10 ng of conjugate, 100 μL injection volume).
(§5) The mice were sacrificed at 4 hour post-dose injection.
(§6) Blood, bladder, reproductive organs, small intestine, colon with caecum, spleen, pancreas, kidneys, stomach, liver, lung, heart, brain, femoral bone, abdominal fat, skeletal muscle, tail (as injection site) and LNCaP tumor were collected from each sacrificed mouse, weighted and transferred to individual tubes for automatic gamma counter.
(§7) The tubes were counted for two min. The background was automatically subtracted from the counts. A standard consisting of 5 μL of the solution injected to the mice was also counted for each group of mice and used for decay correction.
as §1

Series [3] deals with subcutaneous LNCaP tumors. The series is described as above. Format: in vivo, R2G2 mice. The note with it: labeled with 212Pb, one 10 μCi dose i.v., 4 hours post-injection. The protocol: as §2, §3, §4, §5, §6, §7, §1

Read-outs that look alike come from different tables or passages of the source. Where only a bound is given, the exact number is not on record here.

As to `NC(=O)CN1CCN(CC(=O)NCC2CCC(C(=O)NC(Cc3ccc4ccccc4c3)C(=O)NCCCCC(NC(=O)NC(CCC(=O)O)C(=O)O)C(=O)O)CC2)CCN(CC(N)=O)CCN(CC(=O)NCC2CCC(C(=O)NC(Cc3ccc4ccccc4c3)C(=O)NCCCCC(NC(=O)NC(CCC(=O)O)C(=O)O)C(=O)O)CC2)CC1` (centres unmarked) [PSMA-OM-00214], the “tumor uptake and retention compared with DOTAM-PSMA-617” value in series [1] is on record as “significantly higher”. The tissue uptake at 4 h in series [2] (LNCaP tumor, 4 hours post-injection, average, read-out: tumor uptake) is greater than 20 %ID/g. Besides, in series [2] (kidneys, 4 hours, read-out: kidney uptake), the tissue uptake at 4 h is roughly 10 %ID/g. In series [3], the tumor/kidney ratio entry is “satisfactory” and the “uptake in all major non-tumor tissues” value is “very low uptake”.

Source of the values: patent US12697404B2, “PSMA-targeting conjugate and uses thereof” (priority 2021, dated 2026).
